From patent US6423680B1, “Inhibitor of platelet activating factor” (HSC Research and Development Limited Partnership, priority 1998, dated 2002)

Columns and labels:
β-hexosaminidase A = target: T1, β-hexosaminidase A (Homo sapiens, UniProt P06865+P07686); assay: Conventional biological assay: co-factor for hydrolysis of GM2 ganglioside by β-hexosaminidase A; assay type: biochemical
T1 sequence (P06865 89-529): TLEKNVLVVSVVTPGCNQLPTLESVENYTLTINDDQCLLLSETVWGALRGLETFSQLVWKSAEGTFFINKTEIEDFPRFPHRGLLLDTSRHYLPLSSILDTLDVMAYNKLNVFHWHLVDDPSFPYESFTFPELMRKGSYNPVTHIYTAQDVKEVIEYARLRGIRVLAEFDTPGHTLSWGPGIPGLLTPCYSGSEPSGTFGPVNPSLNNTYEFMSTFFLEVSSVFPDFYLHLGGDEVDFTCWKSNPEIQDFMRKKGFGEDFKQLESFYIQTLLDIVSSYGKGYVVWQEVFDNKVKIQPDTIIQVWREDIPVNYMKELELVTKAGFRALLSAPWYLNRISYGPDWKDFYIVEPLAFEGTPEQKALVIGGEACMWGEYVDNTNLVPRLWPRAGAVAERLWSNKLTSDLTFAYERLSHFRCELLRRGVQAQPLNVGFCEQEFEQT
T1 sequence (P07686 122-556): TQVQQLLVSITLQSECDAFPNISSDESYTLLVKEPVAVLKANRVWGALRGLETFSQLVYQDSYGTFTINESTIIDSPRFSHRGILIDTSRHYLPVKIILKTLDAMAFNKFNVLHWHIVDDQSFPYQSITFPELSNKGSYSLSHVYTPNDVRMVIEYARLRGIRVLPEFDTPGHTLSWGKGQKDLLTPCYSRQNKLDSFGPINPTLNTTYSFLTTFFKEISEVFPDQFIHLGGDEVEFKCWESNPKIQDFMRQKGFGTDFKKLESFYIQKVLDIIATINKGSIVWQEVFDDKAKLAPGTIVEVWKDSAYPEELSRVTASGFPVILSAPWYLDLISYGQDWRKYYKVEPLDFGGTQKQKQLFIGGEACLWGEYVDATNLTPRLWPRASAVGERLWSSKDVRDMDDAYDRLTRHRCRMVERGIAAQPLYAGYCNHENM
T1 sequence (P17900 32-193 partner): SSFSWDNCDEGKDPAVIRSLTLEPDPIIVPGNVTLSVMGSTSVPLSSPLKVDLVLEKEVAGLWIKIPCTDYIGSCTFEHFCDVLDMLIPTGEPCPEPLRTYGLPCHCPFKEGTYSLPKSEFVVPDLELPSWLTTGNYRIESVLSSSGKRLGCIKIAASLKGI
Source text: The conventional biological assay for the GM2 activator involves its function as a substrate specific co-factor for the hydrolysis of GM2 ganglioside by β-hexosaminidase A. This assay (described in detail in Meier et al., J. Biol. Chem., 266:1879-1887, 1991) requires that the activator has a functional hydrophobic binding site.

PAF = assay: Calcium release assay in INDO-1 AM-loaded neutrophils; assay type: cell-based, human
Method: Neutrophils were isolated from heparinized venous blood collected from healthy volunteers as previously reported (Laneuville et al., Biochem. J. 295:393-397, 1993). Neutrophils (1 ml, 10^7 cells) were loaded with a […] solution of a fluorescent dye, INDO-1 AM (Calbiochem.) for use in calculating [Ca^2+]i as previously reported (Laneuville et al., supra; Reynaud and Pace-Asciak, Prostaglandins Leukot. Essent. Fatty Acids 56:9-12,1997). For each measurement, 2×10^6 cells were used in 1 ml of cell medium in a temperature-controlled (37° C.) plastic cuvette with continuous stirring. Varying concentrations of functional GM2 activator protein and non-functional truncated GM2 activator protein (i.e. 0, 0.32 and 0.8 nmol) were added to individual cuvettes. Following equilibration of the assay mix, PAF (0.002 nmol) was added and the increase in [Ca^2+]i calculated by a determination of fluorescence. Fluorescence was measured using a Perkin-Elmer fluorescence spectrophotometer as previously reported (Reynaud and Pace-Asciak, supra).
The PAF-response was inhibited by 75% when 800 pmol (15 μg/ml) of activator was present, but not at all in the presence of 800 pmol of the non-functional truncated activator.

GM2 activator protein = target: T2, GM2 activator protein (Homo sapiens, UniProt P17900); assay: Fluorescence dequenching assay (R-18 transport between liposomes; ligand binding)
T2 construct: ID NO; His6 (N); made in house
T2 sequence (P17900 32-193): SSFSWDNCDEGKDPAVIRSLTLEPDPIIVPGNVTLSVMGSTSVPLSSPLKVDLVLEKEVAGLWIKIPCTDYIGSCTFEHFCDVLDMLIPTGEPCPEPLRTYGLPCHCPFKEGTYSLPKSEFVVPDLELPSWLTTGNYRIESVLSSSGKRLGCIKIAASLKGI
Method: The ability of the activator protein to bind GM2 ganglioside, PAF, N-formyl-Met-Leu-Phe (fMLP), or leukotriene B4 (LTB4) was assessed using a fluorescence dequenching assay. This assay was first used to evaluate the ability of the activator to transport a self-quenching fluorescence dye, R-18 (octadecylrhodamine conjugated to a saturated C-18 hydrocarbon chain) (obtained from Molecular Probes), between labeled and unlabeled liposomes (phosphatidylcholine containing large unilamellar vesicles, PC-LUV8). An increase in fluorescence over time when the activator protein and unlabeled liposomes were admixed with R-18 labeled liposomes indicates the ability of the activator to transport the R-18 dye, the fluorescence of which is proportional to concentration of dye that is transported to the unlabelled liposomes. […]
The R-18 labeled liposomes were prepared as follows. […] The column was then eluted with NHE buffer to yield a quantity of labeled liposomes sufficient for 10 assays.
In each fluorescence dequenching assay, 5 μg of activator protein was mixed with 630 nmol of unlabeled liposomes. […] The rate of increase in fluorescence emission was then determined by monitoring at 590 nm, using an excitation wavelength of 560 nm, on a 650-40 fluorometer (Perkin-Elmer). […]
The fluorescence dequenching of the R-18 liposome preparations was measured and calculated as follows. […]

B1: functional activator: Non-glycosylated GM2 activator protein from His6-tag bacterial expression system, SEQ ID NO: 2 (protein)
chain: MRGSHHHHHHGSIEGRSSFSWDNCDEGKDPAVIRSLTLEPDPIVVPGNVTLSVVGSTSVPLSSPLKVDLVLEKEVAGLWIKIPCTDYIGSCTFEHFCDVLDMLIPTGEPCPEPLRTYGLPCHCPFKEGTYSLPKSEFVVPDLELPSWLTTGNYRIESVLSSSGKRLGCIKIAASLKGI
modifications: His6-tag; non-glycosylated; His tag at residues 1 to 17
specific activity as co-factor, compared with wild-type glycosylated precursor activator (CHO cells) (β-hexosaminidase A): functioned in a similar manner to the wildtype activator | inhibition of PAF-response (PAF; 800 pmol (15 μg/ml) of activator present, PAF 0.002 nmol): 75% | release of intracellular calcium pools into the cytosol after PAF (PAF; PAF added to cuvettes containing the functional activator): significant decrease | change in [Ca2+]i on addition of extracellular activator protein alone (PAF; added to suspension of INDO-1 AM-loaded cells, before PAF): did not result in a change in [Ca^2+]i | transport of R-18 between labeled and unlabeled liposomes (GM2 activator protein; 5 μg activator, 37° C., pH 5, increase in fluorescence over time): found to transport R-18 | slope of fluorescence dequenching (GM2 activator protein; activator in the absence of a ligand compound): 0.256 ΔFu/ΔT(min)
